Test results reported in paper PMC5150656, “Detecting stoichiometry of macromolecular complexes in live cells using FRET” (Nature Communications, 2016).

B1: EYFP tagged myosin Va four tandem IQ domain peptide (IQ3-6) (domain or fragment)
chain: RTKAATTIQKYWRMYVVRRRYKIRRAATIVIQSYLRGYLTRNRYRKILREYKAVIIQKRVRGWLARTHYKRTMKAIVYLQCCFRRMMAKRELKKLKIEARSVERYKK
notes: mouse myosin Va neck domain, four tandem IQ domains IQ3-6, residues R814-K920 (Uniprot Q99104); A three amino-acid linker 'AAA' joins EYFP with the peptide; source: HEK293, transiently transfected, in live cells
B2: EYFP tagged myosin Va five tandem IQ domain truncation (IQ2-6) (domain or fragment)
chain: MQRAAITVQRYVRGYQARCYAKFLRRTKAATTIQKYWRMYVVRRRYKIRRAATIVIQSYLRGYLTRNRYRKILREYKAVIIQKRVRGWLARTHYKRTMKAIVYLQCCFRRMMAKRELKKLKIEARSVERYKK
notes: mouse myosin Va neck domain, five tandem IQ domains IQ2-6, residues M789-K920 (Uniprot Q99104); A three amino-acid linker 'AAA' joins EYFP with the peptide; source: HEK293, transiently transfected, in live cells
B3: EYFP-tagged full length myosin Va neck domain peptide containing six IQ domains (IQ1-6) (domain or fragment)
chain: LRAACIRIQKTIRGWLLRKRYLCMQRAAITVQRYVRGYQARCYAKFLRRTKAATTIQKYWRMYVVRRRYKIRRAATIVIQSYLRGYLTRNRYRKILREYKAVIIQKRVRGWLARTHYKRTMKAIVYLQCCFRRMMAKRELKKLKIEARSVERYKK
notes: mouse myosin Va full length neck domain, six tandem IQ domains IQ1-6, residues L766-K920 (Uniprot Q99104); A three amino-acid linker 'AAA' joins EYFP with the peptide; source: HEK293, transiently transfected, in live cells
B4: EYFP tagged myosin Va peptide containing a single IQ domain (IQ6) (domain or fragment)
chain: TMKAIVYLQCCFRRMMAKRELKKLKIEARSVERYKK
notes: mouse myosin Va neck domain, single IQ domain IQ6, residues T885-K920 (Uniprot Q99104); A three amino-acid linker 'AAA' joins EYFP with the peptide; also called EYFP-tagged IQ6 peptide; source: HEK293, transiently transfected, in live cells
B5: EYFP tagged myosin Va two tandem IQ domain peptide (IQ5-6) (domain or fragment)
chain: REYKAVIIQKRVRGWLARTHYKRTMKAIVYLQCCFRRMMAKRELKKLKIEARSVERYKK
notes: mouse myosin Va neck domain, two tandem IQ domains IQ5-6, residues R862-K920 (Uniprot Q99104); A three amino-acid linker 'AAA' joins EYFP with the peptide; source: HEK293, transiently transfected, in live cells
B6: EYFP tagged myosin Va three tandem IQ domain peptide (IQ4-6) (domain or fragment)
chain: RRAATIVIQSYLRGYLTRNRYRKILREYKAVIIQKRVRGWLARTHYKRTMKAIVYLQCCFRRMMAKRELKKLKIEARSVERYKK
notes: mouse myosin Va neck domain, three tandem IQ domains IQ4-6, residues R837-K920 (Uniprot Q99104); A three amino-acid linker 'AAA' joins EYFP with the peptide; source: HEK293, transiently transfected, in live cells

Each binder was assayed against T1, ECFP-tagged calmodulin (CaM) (UniProt P0DP23 1-149) (assay: FRET or BRET; FRET 2-hybrid (3^3-FRET and E-FRET) in single live HEK293 cells, room temperature, basal (resting) Ca2+: Tyrode's bath with 2 mM Ca2+; relative (effective) dissociation constants Kd,EFF; stoichiometry ratio ν = EA,max/ED,max). Conditions: partners not purified.
T1 construct: calmodulin (CaM); also called ECFP-CaM; ECFP fused CaM; source: HEK293, transiently transfected, in live cells

Binder | Kd
B1 | ~25 nM
B2 | ~25 nM
B3 | ~25 nM
B4 | ~25 nM
B5 | ~25 nM
B6 | ~25 nM
